The values below come from patent US20240150474A1 (Regeneron, published 2024).

Holding throughout (experiment): SPR Biacore T200, mAb captured by anti-human Fab, 100 nM dimeric receptor injected, 25C
For orientation: In SPR one partner is held on a chip, and binding of the other changes the refractive index at the surface.

In assay [1] the target is T1, dimeric human BMPR1B (human, UniProt O00238 14-126, limits assumed).
T1 construct: Construct and dimerising part not described; also called Human Receptor BMPR1B
T1 sequence (looked up): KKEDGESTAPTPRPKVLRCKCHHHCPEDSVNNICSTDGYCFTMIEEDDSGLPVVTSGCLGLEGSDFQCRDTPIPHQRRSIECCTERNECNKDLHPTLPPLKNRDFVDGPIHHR
As to the method: (§1) ACVR1 mAbs were tested for cross-reactivity to a panel of bone morphogenic protein type 1 receptors including human and mouse ACVR1, BMPR1A, and BMPR1B, as well as ACVRL1 on a Biacore T200 as follows. In order to measure the specificity of ACVR1 mAbs, ACVR1 mAbs were captured with anti-human Fab immobilized on a CM5 chip. 100 nM or 10 nM of dimeric human or mouse ACVR1, ACVRL1, BMPR1A or BMPR1B were injected at 30 μL/min for 2 min (duplicate injections) and the experiment was performed at 25° C. Binding of different receptors to the captured mAb was determined using Scrubber 2.0c software.

Assay [2] deals with T2, dimeric mouse ACVR1 (mouse, UniProt P37172 21-123, limits assumed).
T2 construct: also called Mouse Receptor ACVR1
T2 sequence (looked up): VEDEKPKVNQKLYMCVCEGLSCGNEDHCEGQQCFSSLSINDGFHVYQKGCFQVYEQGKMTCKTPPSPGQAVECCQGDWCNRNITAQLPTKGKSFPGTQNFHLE
On the procedure:
as §1

In assay [3] the target is T3, dimeric human ACVR1 (human, UniProt Q04771 21-123, limits assumed).
T3 construct: ACVR1'; also called Human Receptor ACVR1
T3 sequence (looked up): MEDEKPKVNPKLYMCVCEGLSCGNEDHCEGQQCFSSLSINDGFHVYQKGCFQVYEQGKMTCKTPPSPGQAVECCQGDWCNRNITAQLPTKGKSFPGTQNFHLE
On the procedure: as §1

Assay [4] deals with T4, dimeric mouse BMPR1A (mouse, UniProt P36895 24-152, limits assumed).
T4 construct: Construct and dimerising part not described; also called Mouse Receptor BMPR1A
As to the method:
as §1

The target in assay [5] is T5, dimeric human ACVRL1 (human, UniProt P37023 22-118, limits assumed).
T5 construct: Construct and dimerising part not described; also called Human Receptor ACVRL1
On the procedure:
as §1

For assay [6], the target named is T6, dimeric human BMPR1A (human, UniProt P36894 24-152, limits assumed).
T6 construct: Construct and dimerising part not described; also called Human Receptor BMPR1A
On the procedure: as §1

T6 sequence (P36894 24-152 limits assumed): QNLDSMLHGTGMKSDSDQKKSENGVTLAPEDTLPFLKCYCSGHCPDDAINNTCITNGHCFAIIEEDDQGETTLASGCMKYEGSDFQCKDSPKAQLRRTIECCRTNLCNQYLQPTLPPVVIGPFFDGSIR
T5 sequence (P37023 22-118 limits assumed): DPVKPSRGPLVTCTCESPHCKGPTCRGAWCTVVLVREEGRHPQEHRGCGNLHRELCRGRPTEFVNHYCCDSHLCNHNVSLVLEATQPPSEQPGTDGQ
T4 sequence (P36895 24-152 limits assumed): as the sequence (P36894 24-152 limits assumed) above, with S16L, S21P, A74T counted along it

B1: REGN 5166 (antibody, human IgG4 S228P, kappa, V domains shown)
VH: QVQLVESGGGVVQPGRSLRLSCAASGFTFSAYWMHWVRQAPGKGLEWVAVISYDGSNKYYADSVKGRFTISRDHSKNTLYLQMNSLRAEDTAVYYCAKGDAYDSWRILLGGDYYGMDVWGQGTTVTVSS
VL: EIVLTQSPGTLSLSPGERATLSCRASQSVSSSYLAWYQQKPGQAPRPLIYGASSRATGIPDRFSGSGSGTDFTLTISRLEPEDFAVYYCQQGGDAPPYTFGGGTKVEIKR
notes: also called REGN 5166-L1
B1: the “100 nM Human Receptor Binding” value in assay [1] came to 24 RU; in assay [3], 147 RU; in assay [5], 4 RU; in assay [6], 2 RU. For the same molecule, the “100 nM Mouse Receptor Binding” value came out at 141 RU in assay [2] and 9 RU in assay [4].

B2: REGN 5167 (antibody, human IgG4 S228P, kappa, V domains shown)
VH: QLQLQESGPGLVKPSETLSLTCTVSGGSITSSSYYWAWIRQPPGKGLEWIGKIYYSGSTHYNPSLKSRVTISVDTSKNQFSLKLSSVTAADTAVYYCARVGGHGYGDSAGLAFDIWGQGTMVTVSS
VL: EIVLTQSPGTLSLSPGERATLSCRASQSVSSAFLAWYQQKPGQAPRLLIYGASYRHTGIPDRFSGSGSGTDFTLTISRLEPEDFAVYYCQHYGVGPRTFGGGTKVEIKR
notes: also called REGN 5167-L1
Turning to B2, the “100 nM Human Receptor Binding” value in assay [1] amounted to 10 RU; in assay [3], 130 RU; in assay [5], 1 RU; in assay [6] it was 2 RU. For the same molecule, the entries for the “100 nM Mouse Receptor Binding” value in assay [2] and in assay [4] were 130 RU and 3 RU, respectively.

B3: REGN 5168 (antibody, human IgG4 S228P, kappa, V domains shown)
VH: QVQLVQSGAEVKEPGASVKVSCKASGYTFAEYYMHWVRQAPGQGLEWMGAINPSGSHTSYAQKFQGRVTMTRDTSTSTVYMELSSLRSEDTAVYYCARSISGKRGGDYYGMDVWGQGTTVTVSS
VL: DIQMTQSPSTLSASVGDRVTITCRASQSISSWLAWYQQKPGKAPKLLIYKASSLESGVPSRFSGSGSGTEFTLTISSLQPDDFATYYCQQYSIFPFTFGGGTKVEIKR
notes: also called REGN 5168-L1
Take B3: the “100 nM Human Receptor Binding” value in assay [1] was 20 RU; in assay [3], 147 RU; in assay [5], 2 RU; in assay [6], 2 RU. Moreover, the “100 nM Mouse Receptor Binding” value in assay [2] was determined as 140 RU; in assay [4], 8 RU.
